Target: T1, PvuRts1I, Q52612
T1 chain: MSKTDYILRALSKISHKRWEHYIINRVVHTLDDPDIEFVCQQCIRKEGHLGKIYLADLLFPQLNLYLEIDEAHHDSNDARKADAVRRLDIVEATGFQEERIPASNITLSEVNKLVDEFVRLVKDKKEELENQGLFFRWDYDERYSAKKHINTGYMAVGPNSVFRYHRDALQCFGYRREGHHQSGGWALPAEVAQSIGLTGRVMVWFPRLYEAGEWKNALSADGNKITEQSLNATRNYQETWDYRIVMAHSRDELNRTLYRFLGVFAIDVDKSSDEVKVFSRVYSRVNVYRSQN
Experiment: SEC; size-exclusion chromatography of purified PvuRts1I; single peak, apparent molecular weight 89 kDa against a theoretical 34 kDa
Details: remark: other sources report otherwise

stoichiometry N: 2
B1: PvuRts1I, Q52612 1-293 (enzyme)
chain: T1 chain
